Laboratory results: patent US6379670B1, “Methods for treatment of multiple sclerosis using peptide analogs of human myelin basic protein” (Neurocrine Biosciences, Inc., priority 1994, dated 2002)

Tests used:
Lewis rats = test: Induction of EAE by peptide analog; type: in vivo, rat
Protocol: In addition, as a safety measure, but not essential to this invention, suitable peptide analogs may be tested for direct induction of EAE. As described in detail in Example 2, various amounts of peptide analogs are injected at the base of the tail of rats, and the rats examined daily for signs of EAE. A peptide analog which is not considered to cause EAE has a mean cumulative score of less than or equal to 1 over seven days when about 12 mg/kg or less in complete Freund's adjuvant is injected.
MBP peptide and peptide analogs were dissolved in phosphate-buffered saline (PBS) and emulsified with an equal volume of incomplete Freund's adjuvant supplemented with 4 mg/ml heat-killed Mycobacterium tuberculosis H37Ra in oil (Difco Laboratories, Inc., Detroit, Mich.). Rats were immunized subcutaneously at the base of the tail with 0.1-0.2 ml containing 500 μg of peptide in the emulsion and were monitored for clinical signs daily. EAE was scored on a scale of 0-4, as follows: 0, clinically normal; 1, flaccid tail; 2, hind limb weakness; 3, hind limb paralysis; 4, front and hind limbs affected.
The ability of peptide analogs to cause EAE is assessed in vivo. Rats were injected with MBP (87-99) or h88/A91 peptide analog as described in Example 2. Animals were monitored daily for evidence of EAE. Rats receiving MBP (87-99) had 100% incidence (18/18 rats) of EAE with a mean maximum clinical score of 2.4±0.2. In contrast, 0/12 rats receiving the peptide analog h88/A91 had EAE.

[1] = test system: Dr2b-restricted T cell clone 5F6; test: Cytokine production (TNF-α, IFN-γ) by T cell clone 5F6, EIA; type: cell-based, human; details: 3 μM MBP peptide, 24 hours, FIG. 21
Protocol: As discussed in detail below, the production of cytokines may also be assessed. In particular, TNF-α and IFN-γ production are especially interesting. These pro-inflammatory cytokines are thought to play a role in the pathogenesis of the disease. Briefly, T cell clone is incubated in the presence of stimulating MBP peptide and peptide analog or control peptide (SWM) or medium only. After a 24 hour incubation, the levels of TNF-α and IFN-γ in the supernatant are determined using commercially available EIA kits (Endogen, Cambridge, Mass.).
The ability of the peptide analog ligand to influence cytokine production was next measured. The Dr2b-restricted T cell clone 5F6 was incubated in the presence of 3 μM MBP peptide with either 10 μM of NBI-5788 (SEQ ID NO:7) or SWM or medium only. As a control, cells were cultured in the presence of medium alone. After 24 hours, supernatants were removed and the levels of tumor necrosis factor alpha (TNF-α) and interferon-y (IFN-γ) determined using commercially available EIA kits.

[2] = test system: T cell lines LW 80, 88, 90 and 93; test: Specificity and phenotype of APL-reactive T cell lines from patient; type: cell-based, human; details: 25 μg/ml antigen
Protocol: Four cell cultures from one patient ([…], 32% frequency) showing a response (> three-fold over background) were expanded into cell lines (LW 80, 88, 90 and 93) by incubation in IL-2 for 11-14 days (1-2 passages). Once sufficient cells had grown up, they were cultured with either medium alone or 25 μg/ml of either whole MBP, MBP (83-99) or APL NBI-5788. After 24 hours, the supernatants were collected and the level of cytokines determined (see FIGS. 22 to 26). The remaining cultures were pulsed with radiolabeled thymidine and the extent of incorporation determined.

[3] = test system: peripheral blood mononuclear cells; test: Frequency of antigen-reactive T cells in PBMC of untreated MS patients and healthy donors (split-well); type: cell-based, human; parameters: mean frequency of antigen-reactive T cells / frequency of antigen-reactive T cells in healthy subjects / antigen-reactive T cells, % Positive: concentration or dose not given beside the values
Protocol: Immune response to the peptide analog was assessed by measuring the frequency of proliferating peripheral blood T cells using a split-well microtiter method (i.e., number of positive wells {Δ cpm >1000, stimulation index>3} divided by the total number of wells assayed). Peripheral blood mononuclear cells (PBMC) were isolated from venous blood by Ficoll-Hypaque density gradient centrifugation, washed twice and resuspended in complete tissue culture medium (Iscove's modification of Dulbecco's medium containing 10% heat-inactivated, pooled, human A-B serum, 2 mM L-glutamine, 100 U/ml penicillin/streptomycin and 50 μg/ml gentamycin). PBMC from each patient were seeded at 10^5/well in 96 well, U-bottom microtiter plates containing 25 μg/ml whole MBP, 10 μg/ml NBI-5788 or medium alone in a volume of 200 μl. Three days later supernatants were collected and frozen at −80° C. and fresh medium containing IL-2 (10 U/ml) was added. IL-2-containg medium was refreshed on Day 7 and Day 11. On Day 14, the frequency of antigen response was determined by the “split well” technique. Briefly, cells from one primary well were split into replicate experimental wells in the presence of 10^5 freshly isolated autologous, irradiated peripheral blood mononuclear cells (APCs): one containing the original antigen (25 μg/ml) and one without antigen. Two days later supernatants were collected and the wells pulsed with 1 µCi/well [^3H]-thymidine ([…]) for the final 18 hours of culture. ^3H-Thymidine uptake was measured in a beta counter. […] The association between T cell frequency and NBI-5788 treatment was evaluated by χ^2 contingency analysis.

[4] = test system: NBI-5788-reactive or MBP-reactive T cell lines from MS patients; test: Cross-reactivity of T cell lines (TCL) from MS patients, 3H-thymidine proliferation; type: cell-based, human
Protocol: To evaluate the degree of NBI-5788-specific reactivity induced by NBI-5788 treatment, we determined whether NBI-5788-reactive T cell lines generated from untreated or NBI-5788-treated patients cross-reacted with whole MBP or MBP peptide 83-99. T cell lines were generated from positive cultures in the frequency analysis by an additional cycle of co-culture with antigen. Specificity of positive lines was tested by culturing 2×10^4 T cells/well in triplicate with whole MBP, MBP83-99, NBI-5788 or medium alone in the presence of 10^5 APCs in a final volume of 200 μl/well. Two days later supernatants were pooled from replicate wells and frozen at −80° C. Wells were then pulsed with [^3H]-thymidine (1 μCi/well) for the final 18 hours of culture.

[5] = rats injected with 500 μg peptide in adjuvant
[6] = subject MS-2, untreated MS patient
[7] = subject MS-3, untreated MS patient
[8] = subject MS-7, untreated MS patient
[9] = subject MS-8, untreated MS patient
[10] = subject MS-9, untreated MS patient
[11] = subject MS-10, untreated MS patient
[12] = subject MS-11, untreated MS patient
[13] = patient MS-1, dose 20 mg, TCL 4

Molecule: CC[C@H](C)[C@H](NC(=O)[C@H](CC(N)=O)NC(=O)[C@H](CCCCN)NC(=O)[C@H](Cc1ccccc1)NC(=O)[C@H](Cc1ccccc1)NC(=O)[C@H](Cc1c[nH]cn1)NC(=O)[C@@H](N)C(C)C)C(=O)N[C@H](C(=O)N[C@H](C(=O)N1CCC[C@H]1C(=O)N[C@@H](CCCNC(=N)N)C(=O)N[C@H](C(=O)N1CCC[C@H]1C(=O)O)[C@@H](C)O)[C@@H](C)O)C(C)C [MBP (87-99)]
- incidence of EAE (Lewis rats; [5]): 100%
- rats with EAE / rats injected (Lewis rats; [5]): 18/18
- mean maximum clinical score (Lewis rats; scale 0-4): 2.4±0.2

Molecule: CC[C@H](C)[C@H](NC(=O)[C@H](CC(N)=O)NC(=O)[C@H](C)NC(=O)[C@H](Cc1ccccc1)NC(=O)[C@H](Cc1ccccc1)NC(=O)[C@@H](Cc1c[nH]cn1)NC(=O)[C@@H](N)C(C)C)C(=O)N[C@H](C(=O)N[C@H](C(=O)N1CCC[C@H]1C(=O)N[C@@H](CCCNC(=N)N)C(=O)N[C@H](C(=O)N1CCC[C@H]1C(=O)O)[C@@H](C)O)[C@@H](C)O)C(C)C [h88/A91]
- induction of EAE by the peptide (Lewis rats; rat, in vivo): does not induce EAE
- rats with EAE / rats injected (Lewis rats; [5]): 0/12

B1: Whole MBP: whole human myelin basic protein (protein, UniProt P02686 1-304, looked up)
Myelin basic protein: MGNHAGKRELNAEKASTNSETNRGESEKKRNLGELSRTTSEDNEVFGEADANQNNGTSSQDTAVTDSKRTADPKNAWQDAHPADPGSRPHLIRLFSRDAPGREDNTFKDRPSESDELQTIQEDSAATSESLDVMASQKRPSQRHGSKYLATASTMDHARHGFLPRHRDTGILDSIGRFFGGDRGAPKRGSGKDSHHPARTAHYGSLPQKSHGRTQDENPVVHFFKNIVTPRTPPPSQGKGRGLSLSRFSWGAEGQRPGFGYGGRASDYKSAHKGFKGVDAQGTLSKIFKLGGRDSRSGSPMARR
- IFN-γ production [1]: ~160 pg/mL
- thymidine incorporation of T cell line ([2]; Line 80 of patient): 1,457 ± 195 cpm
- thymidine incorporation of T cell line ([2]; Line 88 of patient): 977 ± 121 cpm
- thymidine incorporation of T cell line ([2]; Line 90 of patient): 1,604 ± 328 cpm
- thymidine incorporation of T cell line ([2]; Line 93 of patient): 630 ± 28 cpm
- antigen-reactive T cells, Positive/total wells ([3]; Total of healthy donors): 3/96
- antigen-reactive T cells, Positive/total wells ([3]; Total of untreated MS patients): 56/312
- antigen-reactive T cells, % Positive ([3]; healthy donor HD-1): 6.3%
- antigen-reactive T cells, Positive/total wells ([3]; healthy donor HD-1): 3/48
- antigen-reactive T cells, % Positive ([3]; healthy donor HD-2): 0%
- antigen-reactive T cells, Positive/total wells ([3]; healthy donor HD-2): 0/48
- antigen-reactive T cells, % Positive [3, 6]: 6.8%
- antigen-reactive T cells, Positive/total wells [3, 6]: 3/44
- antigen-reactive T cells, % Positive [3, 7]: 25.0%
- antigen-reactive T cells, Positive/total wells [3, 7]: 11/44
- antigen-reactive T cells, % Positive [3, 8]: 11.4%
- antigen-reactive T cells, Positive/total wells [3, 8]: 5/44
- antigen-reactive T cells, % Positive [3, 9]: 52.3%
- antigen-reactive T cells, Positive/total wells [3, 9]: 23/44
- antigen-reactive T cells, % Positive [3, 10]: 16.7%
- antigen-reactive T cells, Positive/total wells [3, 10]: 8/48
- antigen-reactive T cells, % Positive [3, 11]: 2.3%
- antigen-reactive T cells, Positive/total wells [3, 11]: 1/44
- antigen-reactive T cells, % Positive [3, 12]: 11.4%
- antigen-reactive T cells, Positive/total wells [3, 12]: 5/44
- frequency of antigen-reactive T cells in healthy subjects ([3]; two healthy subjects, MBP-reactive cells detected in one of two): 6.3%
- mean frequency of antigen-reactive T cells ([3]; untreated MS patients (n=7)): 18.0±6.3%
- proliferative response of MBP-reactive TCL to antigen ([4]; patient MS-1, dose 20 mg, TCL 2): 25,700 ± 5,266
- proliferative response of MBP-reactive TCL to antigen [4, 13]: 9,498 ± 745
- proliferative response of NBI-5788-reactive TCL to antigen [4, 13]: 772 ± 341
- proliferative response of MBP-reactive TCL to antigen ([4]; patient MS-1, dose 20 mg, TCL 5): 13,102 ± 1,286
- proliferative response of MBP-reactive TCL to antigen ([4]; patient MS-1, dose 20 mg, TCL 10): 54,562 ± 207
- proliferative response of MBP-reactive TCL to antigen ([4]; patient MS-1, dose 20 mg, TCL 14): 23,564 ± 854
- proliferative response of MBP-reactive TCL to antigen ([4]; patient MS-1, dose 20 mg, TCL 26): 48,157 ± 1,207
- proliferative response of NBI-5788-reactive TCL to antigen ([4]; patient MS-1, dose 20 mg, TCL 36): 2,515 ± 532
- proliferative response of MBP-reactive TCL to antigen ([4]; patient MS-1, dose 20 mg, TCL 45): 63,810 ± 1,117
- proliferative response of MBP-reactive TCL to antigen ([4]; patient MS-2, dose 20 mg, TCL 14): 16,000 ± 1,133
- proliferative response of MBP-reactive TCL to antigen ([4]; patient MS-3, Pretreat., TCL 9): 9,736 ± 247
- proliferative response of NBI-5788-reactive TCL to antigen ([4]; patient MS-3, dose 20 mg, TCL 2): 1,785 ± 66
- proliferative response of NBI-5788-reactive TCL to antigen ([4]; patient MS-3, dose 20 mg, TCL 4): 298 ± 41
- proliferative response of NBI-5788-reactive TCL to antigen ([4]; patient MS-3, dose 20 mg, TCL 18): 437 ± 191
- proliferative response of NBI-5788-reactive TCL to antigen ([4]; patient MS-3, dose 20 mg, TCL 30): 557 ± 210
- proliferative response of MBP-reactive TCL to antigen ([4]; patient MS-4, dose 20 mg, TCL 7): 5,308 ± 1,269
- proliferative response of NBI-5788-reactive TCL to antigen ([4]; patient MS-4, dose 20 mg, TCL 18): 5,983 ± 5602
- proliferative response of NBI-5788-reactive TCL to antigen ([4]; patient MS-5, dose 20 mg, TCL 15): 13,151 ± 9,967
- proliferative response of NBI-5788-reactive TCL to antigen ([4]; patient MS-5, dose 20 mg, TCL 39): 6,717 ± 558
- proliferative response of NBI-5788-reactive TCL to antigen ([4]; patient MS-5, dose 20 mg, TCL 43): 3,584 ± 1,068
- proliferative response of NBI-5788-reactive TCL to antigen ([4]; patient MS-6, dose 10 mg, TCL 22): 2,167 ± 53
- proliferative response of NBI-5788-reactive TCL to antigen ([4]; patient MS-6, dose 10 mg, TCL 38): 935 ± 65
- proliferative response of NBI-5788-reactive TCL to antigen ([4]; patient MS-7, dose 5 mg, TCL 12): 1,343 ± 498
- proliferative response of NBI-5788-reactive TCL to antigen ([4]; patient MS-7, dose 5 mg, TCL 28): 2,326 ± 1,300
- proliferative response of MBP-reactive TCL to antigen ([4]; patient MS-7, dose 5 mg, TCL 46): 17,019 ± 2,294
- proliferative response of MBP-reactive TCL to antigen ([4]; patient MS-8, Placebo, TCL 26): 68,704 ± 19,348
- proliferative response of MBP-reactive TCL to antigen ([4]; patient MS-8, Placebo, TCL 28): 47,279 ± 4,539
- proliferative response of MBP-reactive TCL to antigen ([4]; patient MS-8, Placebo, TCL 38): 63,253 ± 5,006
- proliferative response of MBP-reactive TCL to antigen ([4]; patient MS-8, Pretreat., TCL 22): 91,447 ± 3,378
- proliferative response of MBP-reactive TCL to antigen ([4]; patient MS-8, Pretreat., TCL 31): 7,379 ± 123
- proliferative response of MBP-reactive TCL to antigen ([4]; patient MS-8, Pretreat., TCL 47): 47,975 ± 10,326
